To fix the notation:
T1: human GIP receptor (human) (UniProt P48546)
T1 sequence (looked up): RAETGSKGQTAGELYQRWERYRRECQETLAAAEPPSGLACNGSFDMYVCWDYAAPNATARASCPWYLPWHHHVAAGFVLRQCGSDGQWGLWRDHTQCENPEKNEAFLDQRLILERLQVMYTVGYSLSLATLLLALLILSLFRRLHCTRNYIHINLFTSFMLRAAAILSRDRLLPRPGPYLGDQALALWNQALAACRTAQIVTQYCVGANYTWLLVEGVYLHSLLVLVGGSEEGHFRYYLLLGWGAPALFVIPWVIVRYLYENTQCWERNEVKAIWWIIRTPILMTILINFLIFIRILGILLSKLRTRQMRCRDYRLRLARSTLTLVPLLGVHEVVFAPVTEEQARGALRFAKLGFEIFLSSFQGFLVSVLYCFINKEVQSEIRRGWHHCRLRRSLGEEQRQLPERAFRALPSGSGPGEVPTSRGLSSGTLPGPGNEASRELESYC

B1: Example 292 (peptide)
chain: YXQGTXTSDYSKXLDKKAQXQFIEYLEEGGPSSGEPPPSEG
modifications: synthetic construct; SITE 2: note = 2-Aminoisobutyric Acid; SITE 6: note = alpha-methyl-2-fluoro-L-phenylalanine; SITE 13: note = alpha-methyl-leucine; SITE 17: note = Lysine is chemically modified through conjugation of the epsilon-amino group of the Lysine side chain with (2-[2-(2-Amino-ethoxy)-et)
B2: Example 286 (peptide)
chain: YXQGTFTSDXSKXLDKKAQXAFIEYLIAXGESSGEPPPSGE
modifications: synthetic construct; SITE 2: note = 2-Aminoisobutyric Acid; SITE 10: note = 3-(4-Pyridyl)-L-alanine; SITE 13: note = alpha-methyl-leucine; SITE 17: note = Lysine is chemically modified through conjugation of the epsilon-amino group of the Lysine side chain with (2-[2-(2-Amino-ethoxy)-ethoxy]-acetyl)
B3: Example 146 (peptide)
chain: YXQGTFTSDFSKXLDKKAQXAFIEYLLEGGESSGAPPPSGS
modifications: synthetic construct; SITE 2: note = 2-Aminoisobutyric Acid; SITE 13: note = alpha-methyl-leucine; SITE 17: note = Lysine is chemically modified through conjugation of the epsilon-amino group of the Lysine side chain with (2-[2-(2-Amino-ethoxy)-ethoxy]-acetyl)-(gamma-Glu)-CO-(CH2) 16-CO2H; SITE 20: n
B4: Example 274 (peptide)
chain: B3 chain with F10X, K12X, G29A, E31P, S41X
modifications: synthetic construct; SITE 2: note = 2-Aminoisobutyric Acid; SITE 10: note = 3-(4-Pyridyl)-L-alanine; SITE 12: note = L-ornithine; SITE 13: note = alpha-methyl-leucine; SITE 17: note = Lysine is chemically modified through conjugation of the epsilon-amino group of the Lysine side chain with (2-[2-(2-
B5: Example 284 (peptide)
chain: B2 chain with A28E, X29A, E41S
modifications: synthetic construct; SITE 2: note = 2-Aminoisobutyric Acid; SITE 10: note = 3-(4-Pyridyl)-L-alanine; SITE 13: note = alpha-methyl-leucine; SITE 17: note = Lysine is chemically modified through conjugation of the epsilon-amino group of the Lysine side chain with (2-[2-(2-Amino-ethoxy)-ethoxy]-acetyl)
B6: Example 281 (peptide)
chain: B2 chain with A28E
modifications: synthetic construct; SITE 2: note = 2-Aminoisobutyric Acid; SITE 10: note = 3-(4-Pyridyl)-L-alanine; SITE 13: note = alpha-methyl-leucine; SITE 17: note = Lysine is chemically modified through conjugation of the epsilon-amino group of the Lysine side chain with (2-[2-(2-Amino-ethoxy)-ethoxy]-acetyl)
B7: Example 272 (peptide)
chain: B3 chain with K12X, Y25W, E31S, S39G, S41T
modifications: synthetic construct; SITE 2: note = 2-Aminoisobutyric Acid; SITE 12: note = L-ornithine; SITE 13: note = alpha-methyl-leucine; SITE 17: note = Lysine is chemically modified through conjugation of the epsilon-amino group of the Lysine side chain with (2-[2-(2-Amino-ethoxy)-ethoxy]-acetyl)-(gamma-Glu)

Changes are numbered by the printed parent chain. Starred links: 1 amine or outer side, 2 acyl side, 3 side chain; linkers in the order of their positions; H or OH if unused. Non-standard residues stand in square brackets, D forms with d. Groups on a side chain read outwards from the residue. No end group written: not given here. *: point of attachment. C20 diacid = O=C(O)CCCCCCCCCCCCCCCCCCC(=O)*; αMePhe(2-F) = C[C@](N)(Cc1ccccc1F)C(=O)O; γGlu = O=C(O)[C@H](CCC(=O)[*:2])N[*:1]; NMeY = CN[C@@H](Cc1ccc(O)cc1)C(=O)O; αMeF = C[C@](N)(Cc1ccccc1)C(=O)O; Orn = NCCC[C@H](N)C(=O)O; AEEA = NCCOCCOCC(=O)O; Aib = CC(C)(N)C(=O)O

The first test concerns the target T1, human GIP receptor (human). Briefly: cell-based or functional assay.
As for Y[Aib]QGT[αMePhe(2-F)]TSDYSKLLDKIAQK([AEEA-γGlu-C20 diacid])[Orn]FIEWLIEGGPSSGEPPPSEG-NH2 [Example 310], the Relative cAMP EC50 came to 0.0939 nM and the cAMP Rel EC50 (1% HSA) was found to be 15 nM.

As for B1, the Relative cAMP EC50 turned out to be 1.02 nM and the cAMP Rel EC50 (in the presence of 1% HSA) was determined as 92.7 nM.

The molecule Y[Aib]QGT[αMePhe(2-F)]TSDYSKLLDEIAQKAFIEYLLEGGPSSGEPPPSEG-NH2 (not fully specified (residue 20)) [Example 303] had a Relative cAMP EC50 of 0.116 nM and a cAMP Rel EC50 (1% HSA) of 44.7 nM.

The molecule [NMeY][Aib]QGT[αMeF]TSDYSILLDKIAAKAFIEYLIEGGPSSGEPPPSEG-NH2 (not fully specified (residue 20)) [Example 299] returned a Relative cAMP EC50 of 0.137 nM and a cAMP Rel EC50 (1% HSA) of 40.2 nM.

Take B2: the Relative cAMP EC50 was 0.0845 nM and the cAMP Rel EC50 (in the presence of 1% HSA) stood at 11.5 nM.

Take B3: the cAMP Rel EC50, nM (in the presence of 1% HSA) was 74.6 nM.

B4: the Relative cAMP EC50 was determined as 0.296 nM and the cAMP Rel EC50 (in the presence of 1% HSA) was found to be 27.6 nM.

For the molecule B5, the Relative cAMP EC50 came to 0.347 nM and the cAMP Rel EC50 (in the presence of 1% HSA) came to 59.8 nM.

As for B6, the Relative cAMP EC50 came to 0.154 nM and the cAMP Rel EC50 (in the presence of 1% HSA) was 25.8 nM.

B7: the Relative cAMP EC50 is 0.254 nM and the cAMP Rel EC50 (in the presence of 1% HSA) was 36.3 nM.

The target in a further test is human glucagon receptor (human) (UniProt P47871). The experiment in a line: cell-based or functional assay.
Chain of human glucagon receptor (human) (P47871 26-477): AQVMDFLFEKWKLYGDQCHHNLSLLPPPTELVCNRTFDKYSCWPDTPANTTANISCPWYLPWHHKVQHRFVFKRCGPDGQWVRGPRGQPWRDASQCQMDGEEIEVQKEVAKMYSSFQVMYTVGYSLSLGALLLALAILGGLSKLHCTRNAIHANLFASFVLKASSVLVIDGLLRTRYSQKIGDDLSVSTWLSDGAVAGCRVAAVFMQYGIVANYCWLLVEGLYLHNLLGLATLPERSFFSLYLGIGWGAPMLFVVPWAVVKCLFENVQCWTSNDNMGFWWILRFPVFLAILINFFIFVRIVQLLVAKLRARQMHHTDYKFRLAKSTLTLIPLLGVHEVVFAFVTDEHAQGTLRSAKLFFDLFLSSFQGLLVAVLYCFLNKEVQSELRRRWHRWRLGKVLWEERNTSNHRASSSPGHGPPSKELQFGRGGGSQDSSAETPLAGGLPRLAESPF
Regarding Y[Aib]QGT[αMePhe(2-F)]TSDYSKLLDKIAQK([AEEA-γGlu-C20 diacid])[Orn]FIEWLIEGGPSSGEPPPSEG-NH2 [Example 310], the Relative cAMP EC50 is 3.52 nM and the cAMP Rel EC50 (1% HSA) was 4000 nM.

B1: the Relative cAMP EC50 amounted to 1.84 nM and the cAMP Rel EC50 (in the presence of 1% HSA) was 583 nM.

Y[Aib]QGT[αMePhe(2-F)]TSDYSKLLDEIAQKAFIEYLLEGGPSSGEPPPSEG-NH2 (not fully specified (residue 20)) [Example 303] gave a Relative cAMP EC50 of 6.1 nM and a cAMP Rel EC50 (1% HSA) of 9950 nM.

Molecule [NMeY][Aib]QGT[αMeF]TSDYSILLDKIAAKAFIEYLIEGGPSSGEPPPSEG-NH2 (not fully specified (residue 20)) [Example 299] came in with a Relative cAMP EC50 of 2.54 nM and a cAMP Rel EC50 (1% HSA) of 1700 nM.

In the case of B2, the Relative cAMP EC50 is 2.2 nM and the cAMP Rel EC50 (in the presence of 1% HSA) came to 228 nM.

As to B3, the cAMP Rel EC50, nM (in the presence of 1% HSA) is 463 nM.

Take B4: the Relative cAMP EC50 is 9.37 nM and the cAMP Rel EC50 (in the presence of 1% HSA) amounted to 1120 nM.

Take B5: the Relative cAMP EC50 was found to be 9.21 nM and the cAMP Rel EC50 (in the presence of 1% HSA) was determined as 1530 nM.

Consider B6, for which the Relative cAMP EC50 worked out at 13.7 nM and the cAMP Rel EC50 (in the presence of 1% HSA) is 1370 nM.

On to B7, for which the Relative cAMP EC50 was found to be 7.91 nM and the cAMP Rel EC50 (in the presence of 1% HSA) came out at 1540 nM.

For a further test, the target named is hGLP-1R (Homo sapiens, UniProt P43220). Briefly: cell-based or functional assay.
Chain of hGLP-1R (P43220 24-463): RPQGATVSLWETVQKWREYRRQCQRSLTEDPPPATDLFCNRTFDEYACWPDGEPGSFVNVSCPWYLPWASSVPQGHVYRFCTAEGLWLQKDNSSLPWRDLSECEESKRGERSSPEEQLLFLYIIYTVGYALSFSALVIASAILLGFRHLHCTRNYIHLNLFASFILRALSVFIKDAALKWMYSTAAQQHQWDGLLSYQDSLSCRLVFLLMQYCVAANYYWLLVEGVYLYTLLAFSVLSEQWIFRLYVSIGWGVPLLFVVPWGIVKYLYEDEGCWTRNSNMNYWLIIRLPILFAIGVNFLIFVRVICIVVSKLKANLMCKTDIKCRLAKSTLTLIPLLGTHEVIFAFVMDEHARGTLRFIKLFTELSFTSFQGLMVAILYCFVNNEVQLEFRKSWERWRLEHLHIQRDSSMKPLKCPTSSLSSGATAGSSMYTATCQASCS
With Y[Aib]QGT[αMePhe(2-F)]TSDYSKLLDKIAQK([AEEA-γGlu-C20 diacid])[Orn]FIEWLIEGGPSSGEPPPSEG-NH2 [Example 310], the Relative cAMP EC50 is 0.586 nM and the cAMP Rel EC50 (1% HSA) is 177 nM.

Take B1: the Relative cAMP EC50 was 1.03 nM and the cAMP Rel EC50 (in the presence of 1% HSA) was determined as 129 nM.

The molecule Y[Aib]QGT[αMePhe(2-F)]TSDYSKLLDEIAQKAFIEYLLEGGPSSGEPPPSEG-NH2 (not fully specified (residue 20)) [Example 303] had a Relative cAMP EC50 of 1.13 nM and a cAMP Rel EC50 (1% HSA) of 257 nM.

Consider [NMeY][Aib]QGT[αMeF]TSDYSILLDKIAAKAFIEYLIEGGPSSGEPPPSEG-NH2 (not fully specified (residue 20)) [Example 299], for which the Relative cAMP EC50 came to 0.963 nM and the cAMP Rel EC50 (1% HSA) came to 380 nM.

In the case of B2, the Relative cAMP EC50 was 3.45 nM and the cAMP Rel EC50 (in the presence of 1% HSA) is 925 nM.

For the molecule B3, the cAMP Rel EC50, nM (in the presence of 1% HSA) is 678 nM.

As to B4, the Relative cAMP EC50 is 4.9 nM and the cAMP Rel EC50 (in the presence of 1% HSA) came to 560 nM.

B5: the Relative cAMP EC50 is 1.54 nM and the cAMP Rel EC50 (in the presence of 1% HSA) turned out to be 271 nM.

On to B6, for which the Relative cAMP EC50 was 1.6 nM and the cAMP Rel EC50 (in the presence of 1% HSA) stood at 295 nM.

Consider B7, for which the Relative cAMP EC50 is 2.62 nM and the cAMP Rel EC50 (in the presence of 1% HSA) is 486 nM.

Values taken from patent publication US20240270821A1, “GIP/GLP1/GCG TRI-RECEPTOR AGONISTS AND USES THEREOF” (priority 2023, published 2024).
